This note sets out measurements from paper PMC4474691, “Leukemia-Associated Mutations in Nucleophosmin Alter Recognition by CRM1: Molecular Basis of Aberrant Transport” (PLoS ONE, 2015).

The experiment concerns the target T1, wild type nucleophosmin (NPM) (human, UniProt P06748 1-294).
T1 construct: human nucleophosmin, full length, wild type, pentameric; also called NPM1; B23; source: E. coli BL21 (DE3), purified (Ni-NTA, TEV, second Ni-NTA, Superdex 200); not shown: (His)10-ZZ, N-terminal, cleaved
Kind of experiment: ITC; importin α, importin Δα or importin α/β at 45–60 μM titrated onto NPM (1–1.2 μM pentamer); 50 mM Tris/HCl pH 7.5, 100 mM NaCl, 2 mM TCEP, 10% glycerol; identical, independent binding sites model; n counts importins for each NPM pentamer. Particulars: both partners purified.

T1 sequence (P06748 whole entry): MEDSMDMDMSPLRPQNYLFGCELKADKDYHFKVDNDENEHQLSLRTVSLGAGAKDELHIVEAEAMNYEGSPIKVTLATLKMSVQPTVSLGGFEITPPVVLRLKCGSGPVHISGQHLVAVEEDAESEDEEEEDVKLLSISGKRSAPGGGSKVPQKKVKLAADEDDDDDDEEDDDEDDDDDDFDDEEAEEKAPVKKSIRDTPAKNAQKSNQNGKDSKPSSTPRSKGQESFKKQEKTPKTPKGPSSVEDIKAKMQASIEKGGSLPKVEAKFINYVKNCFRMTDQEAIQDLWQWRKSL

B1: importin α (receptor)
chain: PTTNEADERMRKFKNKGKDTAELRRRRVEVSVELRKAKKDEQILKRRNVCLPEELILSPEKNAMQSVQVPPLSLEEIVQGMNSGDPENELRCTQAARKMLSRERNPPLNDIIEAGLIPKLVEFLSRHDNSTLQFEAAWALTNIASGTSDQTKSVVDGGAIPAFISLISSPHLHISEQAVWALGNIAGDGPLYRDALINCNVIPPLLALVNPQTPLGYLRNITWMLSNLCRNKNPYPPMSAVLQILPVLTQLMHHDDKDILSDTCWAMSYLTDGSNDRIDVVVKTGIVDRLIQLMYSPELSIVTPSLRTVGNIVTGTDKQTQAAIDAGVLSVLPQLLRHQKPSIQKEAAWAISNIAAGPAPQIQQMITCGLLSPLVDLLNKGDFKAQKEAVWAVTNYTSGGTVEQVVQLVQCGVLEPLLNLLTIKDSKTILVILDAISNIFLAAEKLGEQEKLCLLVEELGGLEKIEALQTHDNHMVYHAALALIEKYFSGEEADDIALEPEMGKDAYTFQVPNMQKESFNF
As for B1, the Kd turned out to be 703 ± 347 nM, the dH is -10.9 ± 4 kcal/mol and the “stoichiometry N” value is 5 ± 0.2.

B2: importin Δα (importin α lacking the importin β binding (IBB) motif) (domain or fragment)
chain: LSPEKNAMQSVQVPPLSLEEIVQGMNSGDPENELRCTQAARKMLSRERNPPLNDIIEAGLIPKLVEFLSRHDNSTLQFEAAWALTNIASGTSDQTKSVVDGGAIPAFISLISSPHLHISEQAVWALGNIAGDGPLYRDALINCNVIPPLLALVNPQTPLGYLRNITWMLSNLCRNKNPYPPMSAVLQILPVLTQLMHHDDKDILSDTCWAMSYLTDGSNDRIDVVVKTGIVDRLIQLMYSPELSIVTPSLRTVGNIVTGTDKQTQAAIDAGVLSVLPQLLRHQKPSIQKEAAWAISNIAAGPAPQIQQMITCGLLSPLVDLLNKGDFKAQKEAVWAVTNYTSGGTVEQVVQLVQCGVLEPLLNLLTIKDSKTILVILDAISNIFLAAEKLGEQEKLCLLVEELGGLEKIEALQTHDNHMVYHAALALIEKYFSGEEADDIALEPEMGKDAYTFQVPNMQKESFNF
Consider B2, for which binding was put at a Kd of 295 ± 20 nM, the dH was -14.3 ± 3.5 kcal/mol and the “stoichiometry N” value was determined as 4.9 ± 0.2.
